The target of the assay is wildtype S. pyogenes Cas9 (S. pyogenes) (UniProt Q99ZW2). Briefly: cell-based or functional assay.
Chain of UniProt Q99ZW2 (Q99ZW2 whole entry): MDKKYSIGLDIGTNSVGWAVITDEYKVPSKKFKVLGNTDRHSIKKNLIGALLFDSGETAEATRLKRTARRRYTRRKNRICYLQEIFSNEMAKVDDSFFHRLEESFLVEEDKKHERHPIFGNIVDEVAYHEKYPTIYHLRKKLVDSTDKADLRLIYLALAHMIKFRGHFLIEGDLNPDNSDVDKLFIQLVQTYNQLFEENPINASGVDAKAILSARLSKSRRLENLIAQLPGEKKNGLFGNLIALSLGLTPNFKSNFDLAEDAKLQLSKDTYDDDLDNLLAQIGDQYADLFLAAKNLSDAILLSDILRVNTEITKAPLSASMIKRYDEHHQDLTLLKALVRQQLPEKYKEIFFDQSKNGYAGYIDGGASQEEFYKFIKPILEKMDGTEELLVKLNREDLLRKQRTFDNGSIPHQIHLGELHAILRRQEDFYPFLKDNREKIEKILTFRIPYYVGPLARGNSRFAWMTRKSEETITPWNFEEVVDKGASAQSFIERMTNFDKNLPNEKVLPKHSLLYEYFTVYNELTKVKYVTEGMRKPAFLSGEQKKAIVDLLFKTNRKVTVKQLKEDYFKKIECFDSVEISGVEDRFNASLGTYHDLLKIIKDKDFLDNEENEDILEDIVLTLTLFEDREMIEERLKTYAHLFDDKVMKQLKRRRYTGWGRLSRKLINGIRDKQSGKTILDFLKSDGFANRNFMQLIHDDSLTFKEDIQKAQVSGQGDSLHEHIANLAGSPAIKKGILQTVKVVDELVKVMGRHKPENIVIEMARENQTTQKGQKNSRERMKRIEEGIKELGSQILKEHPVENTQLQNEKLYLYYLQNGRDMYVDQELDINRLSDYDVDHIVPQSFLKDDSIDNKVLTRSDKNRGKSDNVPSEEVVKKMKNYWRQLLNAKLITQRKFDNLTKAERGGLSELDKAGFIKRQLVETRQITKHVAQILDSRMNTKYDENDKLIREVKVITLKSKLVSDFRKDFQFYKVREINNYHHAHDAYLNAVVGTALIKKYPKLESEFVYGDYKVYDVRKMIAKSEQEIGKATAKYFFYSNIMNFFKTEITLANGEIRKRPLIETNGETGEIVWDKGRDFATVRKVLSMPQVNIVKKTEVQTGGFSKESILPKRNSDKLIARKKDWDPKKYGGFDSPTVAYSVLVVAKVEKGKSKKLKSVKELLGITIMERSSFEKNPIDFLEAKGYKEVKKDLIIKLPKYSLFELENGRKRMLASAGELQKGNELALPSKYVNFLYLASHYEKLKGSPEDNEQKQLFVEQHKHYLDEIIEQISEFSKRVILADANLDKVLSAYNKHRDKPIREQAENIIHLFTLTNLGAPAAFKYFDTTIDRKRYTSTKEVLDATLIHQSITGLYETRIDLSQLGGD

For the substance AcrIIA2-Cdt1 fusion protein, the HDR (GFP correction) in RPE1 reporter cells deficient of p53, AcrIIA2-Cdt1 protein co-transfected with WT CRISPR-Cas9 RNP was 2 fold and the HDR (GFP correction) in RPE1 reporter cells, AcrIIA2-Cdt1 protein co-transfected with WT CRISPR-Cas9 RNP amounted to 3 fold.

These data come from patent US20230304047A1.
